In data set [1] the target is BACH1 DBD of BACH1-sMafGχ;sMafG DBD of chimeras (Homo sapiens?;Homo sapiens?, UniProt O14867;O15525 511-627;1-162, |). The data set can be described thus: EMSA; apparent; TEV and 3C cleaved; 150 mM NaCl, 50 mM HEPES pH 7.9, 10% glycerol, 1 mM TCEP, 1 mM DTT, 2 mM MgCl2; 3 nM DNA; TEV and 3C 50 ug/mL each, 4 h 25 °C; competition then O/N 4 °C; gels 4 °C in 1X TBE. To be noted: protein: recombinant;recombinant; tags: 3C/TEV-cleavable linker with His tags to sMafG;fused C-terminal of the linker; copies: 1;1; label: 5' fluorescein on forward strand; blunt. (In EMSA bound probe runs differently from free probe, usually more slowly.)

Data set [2] deals with NRF2 DBD of NRF2-sMafGχ;sMafG DBD of chimeras (Homo sapiens?;Homo sapiens?, UniProt Q16236;O15525 451-567;1-162, |). The description is as above. To be noted: protein: recombinant;recombinant; tags: 3C/TEV-cleavable linker with His tags to sMafG;fused C-terminal of the linker; copies: 1;1; label: 5' fluorescein on forward strand; blunt.

B1: HMOX1 CsMBE 30-mer (dsDNA)
DNA 1: CTCGGGACCGTGACTCAGCAGGAAAAACAC
DNA 2: GTGTTTTTCCTGCTGAGTCACGGTCCCGAG
For B1, the Kd turned out to be 0.049 ± 0.0019 µM in data set [1] and 0.058 ± 0.003 µM in data set [2].

The record behind these values is publication PMC12561426, “Dissecting the Interplay Between NRF2 and BACH1 at CsMBEs”.
